Reference: paper PMC7231638
Read-outs that look alike come from different tables or passages of the source.

Assays:
[1] = target: T1, Mre11ND Y187F (Pyrococcus furiosus, UniProt Q8U1N9 1-342, Y187F); experiment: NMR imino proton melting
[2] = target: T2, Mre11 Y187F (in MRNBD);Rad50NBD (Pyrococcus furiosus;Pyrococcus furiosus, UniProt Q8U1N9;P58301 1-426;1-195+709-882, Y187F|internal_change); experiment: fluorescence polarization
[3] = target: T3, Mre11ND Y187C (Pyrococcus furiosus, UniProt Q8U1N9 1-342, Y187C); experiment: fluorescence polarization
[4] = target: T4, Mre11 Y187C (in MRNBD);Rad50NBD (Pyrococcus furiosus;Pyrococcus furiosus, UniProt Q8U1N9;P58301 1-426;1-195+709-882, Y187C|internal_change); experiment: fluorescence polarization
[5] = target: T1, Mre11ND Y187F; experiment: fluorescence polarization
[6] = target: T5, Mre11ND WT (Pyrococcus furiosus, UniProt Q8U1N9 1-342); experiment: fluorescence polarization
[7] = target: T6, Mre11ND H52S (Pyrococcus furiosus, UniProt Q8U1N9 1-342, H52S); experiment: fluorescence polarization
[8] = target: T7, Mre11 H52S (in MRNBD);Rad50NBD (Pyrococcus furiosus;Pyrococcus furiosus, UniProt Q8U1N9;P58301 1-426;1-195+709-882, H52S|internal_change); experiment: fluorescence polarization
[9] = target: T8, Mre11 WT (in MRNBD);Rad50NBD (Pyrococcus furiosus;Pyrococcus furiosus, UniProt Q8U1N9;P58301 1-426;1-195+709-882, |internal_change); experiment: fluorescence polarization
[10] = target: T3, Mre11ND Y187C; experiment: fluorescence polarization; remark: listed apart in the source
[11] = target: T5, Mre11ND WT; experiment: fluorescence polarization; remark: listed apart in the source
[12] = target: T4, Mre11 Y187C (in MRNBD);Rad50NBD; experiment: fluorescence polarization; remark: listed apart in the source
[13] = target: T6, Mre11ND H52S; experiment: fluorescence polarization; remark: listed apart in the source
[14] = target: T8, Mre11 WT (in MRNBD);Rad50NBD; experiment: fluorescence polarization; remark: listed apart in the source
[15] = target: T2, Mre11 Y187F (in MRNBD);Rad50NBD; experiment: fluorescence polarization; remark: listed apart in the source
[16] = target: T1, Mre11ND Y187F; experiment: fluorescence polarization; remark: listed apart in the source
[17] = target: T7, Mre11 H52S (in MRNBD);Rad50NBD; experiment: fluorescence polarization; remark: listed apart in the source

CACGCACGTAGAAGCTTTTGCTTCTACGTGCGTGACT (structured_DNA) [hairpin dsDNA DSB mimic]
binding result [1]: binds

GTGTTCGGACTCTGCCTCAAGACGGTAGTCAACGTGCTTG (ssDNA) [FAM 40-mer ssDNA]
Kd [2]: 190 nM
Kd [3]: 240 nM
Kd [4]: 210 nM
Kd [5]: 110 nM
Kd [6]: 130 nM
Kd [7]: 170 nM
Kd [8]: 170 nM
Kd [9]: 180 nM

B1: FAM 40-mer dsDNA (dsDNA)
DNA 1: GTGTTCGGACTCTGCCTCAAGACGGTAGTCAACGTGCTTG
DNA 2: CAAGCACGTTGACTACCGTCTTGAGGCAGAGTCCGAACAC
Kd [10]: 1980 nM
Kd [11]: 1300 nM
Kd [12]: 1800 nM
Kd [13]: 3170 nM
Kd [14]: 1410 nM
Kd [15]: 1320 nM
Kd [16]: 710 nM
Kd [17]: 4170 nM
